Values quoted from earlier work as cited in paper PMC3562316.

Target: IGF1R (Homo sapiens) (UniProt P08069)

Kd: 0.2 nM
Substance: IGF-2 (from UniProt P01344)
